Reference: paper PMC8224932 (FEBS letters, 2020)
No end group written: not given here. TAMRA = carboxytetramethylrhodamine

T1: GST-tagged Sin3A PAH1 (mouse, UniProt Q60520 119-195)
T1 sequence (looked up): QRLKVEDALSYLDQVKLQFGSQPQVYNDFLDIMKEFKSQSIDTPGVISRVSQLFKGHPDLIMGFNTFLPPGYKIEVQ

T2: ^15N,^13C-labeled Sin3A PAH1 (mouse, UniProt Q60520 119-195)
T2 sequence (looked up): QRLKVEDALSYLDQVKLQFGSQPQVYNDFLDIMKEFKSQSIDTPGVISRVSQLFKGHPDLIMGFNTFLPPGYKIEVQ


Assays:
[1] = molecular target: T1, GST-tagged Sin3A PAH1; experiment: fluorescence polarisation
[2] = molecular target: T2, ^15N,^13C-labeled Sin3A PAH1; experiment: NMR titration

Row | Binder | Kd [1] | binding result [2]
1 | {TAMRA}-EYDNYDELVAKSLLNLGKIAED (peptide, UniProt Q9UL68 193-214, looked up) [TAMRA-conjugated Myt1L^193−214 SID peptide] | 6 ± 0.9 µM | 
2 | EYDNYDELVAKSLLNLGKIAED (peptide, UniProt Q9UL68 193-214, looked up) [Myt1L^193−214 SID peptide (released from MBP)] |  | binds
